According to article PMC4874879 (Molecular cell, 2016):
Blank lines part the entries; values can stand above or below the molecule they belong to.

How the values were obtained:
[1] = molecular target: FLAG- and V5-tagged ATXN7L3 (UniProt Q14CW9); experiment: affinity purification with mass spectrometry
[2] = molecular target: T1, FLAG- and V5-tagged ATXN7L3 (UniProt Q14CW9 1-347); experiment: affinity purification with mass spectrometry
T1 sequence (looked up): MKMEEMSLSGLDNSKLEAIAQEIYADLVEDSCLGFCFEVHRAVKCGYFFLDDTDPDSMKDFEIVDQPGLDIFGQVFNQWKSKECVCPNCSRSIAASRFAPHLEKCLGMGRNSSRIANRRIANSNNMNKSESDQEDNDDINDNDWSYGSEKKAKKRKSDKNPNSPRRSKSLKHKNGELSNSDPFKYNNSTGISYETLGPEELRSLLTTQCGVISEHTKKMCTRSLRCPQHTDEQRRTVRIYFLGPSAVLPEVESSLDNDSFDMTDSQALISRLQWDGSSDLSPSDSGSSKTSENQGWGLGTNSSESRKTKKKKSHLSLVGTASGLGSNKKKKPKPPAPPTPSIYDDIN

fold increase of association with ATXN7L3 upon depletion of USP22 [1]: 5.5 fold
Molecule: USP27X (endogenous) (enzyme)

fold increase of association with ATXN7L3 upon depletion of USP22 [2]: ~4 fold
B1: USP51 (endogenous) (enzyme, human (endogenous in 293T), UniProt Q70EK9 1-711, looked up)
chain: MAQVRETSLPSGSGVRWISGGGGGASPEEAVEKAGKMEEAAAGATKASSRREAEEMKLEPLQEREPAPEENLTWSSSGGDEKVLPSIPLRCHSSSSPVCPRRKPRPRPQPRARSRSQPGLSAPPPPPARPPPPPPPPPPPAPRPRAWRGSRRRSRPGSRPQTRRSCSGDLDGSGDPGGLGDWLLEVEFGQGPTGCSHVESFKVGKNWQKNLRLIYQRFVWSGTPETRKRKAKSCICHVCSTHMNRLHSCLSCVFFGCFTEKHIHKHAETKQHHLAVDLYHGVIYCFMCKDYVYDKDIEQIAKETKEKILRLLTSTSTDVSHQQFMTSGFEDKQSTCETKEQEPKLVKPKKKRRKKSVYTVGLRGLINLGNTCFMNCIVQALTHIPLLKDFFLSDKHKCIMTSPSLCLVCEMSSLFHAMYSGSRTPHIPYKLLHLIWIHAEHLAGYRQQDAHEFLIAILDVLHRHSKDDSGGQEANNPNCCNCIIDQIFTGGLQSDVTCQACHSVSTTIDPCWDISLDLPGSCATFDSQNPERADSTVSRDDHIPGIPSLTDCLQWFTRPEHLGSSAKIKCNSCQSYQESTKQLTMKKLPIVACFHLKRFEHVGKQRRKINTFISFPLELDMTPFLASTKESRMKEGQPPTDCVPNENKYSLFAVINHHGTLESGHYTSFIRQQKDQWFSCDDAIITKATIEDLLYSEGYLLFYHKQGLEKD
